Three molecules from publication PMC10208570 (2023) can be followed below.

In general, IC50 refers to the concentration at which inhibition is half-maximal. Read a low IC50 as higher potency. Broadly, the Ki is the dissociation constant of the complex between target and ligand, obtained from inhibition or displacement. Lower therefore signals a stronger hold on the target.

Assay in all cases: FP
Experiment [1] addresses T1, LptAm^Q62L (E. coli) (E. coli (ATCC 25922)).
T1 chain: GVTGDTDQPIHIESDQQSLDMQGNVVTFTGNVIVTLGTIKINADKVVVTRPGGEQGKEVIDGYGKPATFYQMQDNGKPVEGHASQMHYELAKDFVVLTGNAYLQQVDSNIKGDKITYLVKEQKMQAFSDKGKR

Experiment [2] addresses T2, LptAm (E. coli), monomeric truncated variant of LptA (E. coli (ATCC 25922)).
T2 chain: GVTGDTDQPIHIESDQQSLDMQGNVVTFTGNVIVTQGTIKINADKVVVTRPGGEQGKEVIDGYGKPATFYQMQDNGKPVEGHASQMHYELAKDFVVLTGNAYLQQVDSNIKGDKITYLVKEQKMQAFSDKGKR

Experiment [3] addresses T1, LptAm^Q62L (E. coli).
Experiment [4] has as its target T3, K. pneumoniae LptAm (K. pneumoniae (ATCC 13883)).
T3 chain: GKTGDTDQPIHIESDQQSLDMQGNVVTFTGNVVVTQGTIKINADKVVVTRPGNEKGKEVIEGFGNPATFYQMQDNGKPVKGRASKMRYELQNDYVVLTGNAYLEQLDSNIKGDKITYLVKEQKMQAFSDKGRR

Experiment [5] concerns the target T2, LptAm (E. coli), monomeric truncated ….
A further experiment concerns the target K. pneumoniae LptAm^Q62L (K. pneumoniae (ATCC 13883)).
Experiment [6] deals with T1, LptAm^Q62L (E. coli).
The target in experiment [7] is T3, K. pneumoniae LptAm.
Experiment [8] concerns the target T2, LptAm (E. coli), monomeric truncated ….

Like-named read-outs stand apart in the source and are kept apart here. Bridges are numbered along the chain shown (N, C = ends). Where no end group is shown, it is not given here.

B1: mLptA (E. coli), LptA(25-185) E39V M47A R76A (domain or fragment)
chain: GAFAVTGDTDQPIHIVSDQQSLDAQGNVVTFTGNVIVTQGTIKINADKVVVTAPGGEQGKEVIDGYGKPATFYQMQDNGKPVEGHASQMHYELAKDFVVLTGNAYLQQVDSNIKGDKITYLVKEQKMQAFSDKGKRVTTVLVPSQLQDKNNKGQTPAQKKGN
Turning to B1, the IC50 with LptAm^Q62L (E. coli) [1] amounted to 102 nM; in experiment [2], 213 nM.
On to GSKKPVPIIYCNRRTGKCQRM [Thanatin], for which, in the experiment with LptAm^Q62L (E. coli) [3], the IC50 worked out at 50 nM.
Regarding KKPVPIIYCNRRTGKCQRM (disulfide 9-16 (inferred)) [peptide 1], the IC50 with LptAm^Q62L (E. coli) [3] amounted to 30.4 nM; with K. pneumoniae LptAm [4] it was 9.6 nM; in experiment [5] it was 6.6 nM; with K. pneumoniae LptAm^Q62L it was 20.8 nM. In addition, the inhibition constant Ki with K. pneumoniae LptAm^Q62L turned out to be 18.2 nM; with LptAm^Q62L (E. coli) [6], 20.5 nM; with K. pneumoniae LptAm [7], 0.9 nM; in [8], 1.1 nM.
